Molecular target: SARS-CoV-2 nsp12 (RdRp), wild type;SARS-CoV-2 nsp7;SARS-CoV-2 nsp8 (SARS-CoV-2;SARS-CoV-2;SARS-CoV-2, UniProt P0DTD1;P0DTD1;P0DTD1 4393-5324;3860-3942;3943-4140, ||)
Experiment: EMSA (native gel); no NTP
Conditions: protein: recombinant;recombinant;recombinant; tags: C-terminal His10 (TEV-cleaved protein A);GST-3C construct (E. coli); 9.4 kDa on gel;GST-3C construct (E. coli); 22 kDa on gel; copies: 1;1;2; label: Cy3 at template 5' end; Cy5 internal at primer position 12

B1: Extension Template P1 / Extension Primer P12 short (overhang RNA) (structured_RNA)
RNA 1: AAAAAAAAUUUUUUUUUUUUUUUAAUUCUUAAUCUCACAUAGC
RNA 2: GCUAUGUGAGAUUAAGAAUU
binding result: binds
